Measurements from patent US20240174744A1 (SCIRHOM, published 2024).

How the values were obtained:
[1] = target: T1, hiR2-FL-I566E-T7 (human iRhom2 full length I566E, 3 x T7 tag) (human, UniProt Q6PJF5 1-856); assay: FACS on MEF-DKO-hiR2-FL-I566E-T7 cells
T1 sequence: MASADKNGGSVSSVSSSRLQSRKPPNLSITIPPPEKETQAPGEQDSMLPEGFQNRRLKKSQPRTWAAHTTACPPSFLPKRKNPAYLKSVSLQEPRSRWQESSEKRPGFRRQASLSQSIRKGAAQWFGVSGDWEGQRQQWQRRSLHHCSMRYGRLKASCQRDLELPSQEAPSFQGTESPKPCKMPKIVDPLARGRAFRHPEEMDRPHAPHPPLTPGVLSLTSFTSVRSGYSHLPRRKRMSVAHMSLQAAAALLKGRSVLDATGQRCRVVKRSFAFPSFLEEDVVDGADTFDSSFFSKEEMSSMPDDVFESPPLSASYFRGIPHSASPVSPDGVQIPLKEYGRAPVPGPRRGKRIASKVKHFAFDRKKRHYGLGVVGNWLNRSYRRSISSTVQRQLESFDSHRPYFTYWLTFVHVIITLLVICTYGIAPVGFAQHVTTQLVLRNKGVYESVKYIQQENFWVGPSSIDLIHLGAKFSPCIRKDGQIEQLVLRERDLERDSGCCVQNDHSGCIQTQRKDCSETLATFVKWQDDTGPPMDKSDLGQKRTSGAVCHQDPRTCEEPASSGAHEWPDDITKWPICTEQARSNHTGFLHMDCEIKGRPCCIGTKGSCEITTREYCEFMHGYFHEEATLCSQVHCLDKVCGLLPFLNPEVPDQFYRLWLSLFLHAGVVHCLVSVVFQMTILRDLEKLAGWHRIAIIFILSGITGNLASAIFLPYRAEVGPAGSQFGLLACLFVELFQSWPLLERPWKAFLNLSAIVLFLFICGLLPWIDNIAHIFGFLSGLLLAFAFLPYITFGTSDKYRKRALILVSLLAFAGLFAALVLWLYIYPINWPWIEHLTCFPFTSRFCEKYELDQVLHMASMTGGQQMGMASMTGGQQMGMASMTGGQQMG

[2] = target: T2, hiR2-FL-K536A-T7 (human iRhom2 full length K536A, 3 x T7 tag) (human, UniProt Q6PJF5 1-856); assay: FACS on MEF-DKO-hiR2-FL-K536A-T7 cells, PE anti-mouse IgG F(ab')2 detection
T2 sequence: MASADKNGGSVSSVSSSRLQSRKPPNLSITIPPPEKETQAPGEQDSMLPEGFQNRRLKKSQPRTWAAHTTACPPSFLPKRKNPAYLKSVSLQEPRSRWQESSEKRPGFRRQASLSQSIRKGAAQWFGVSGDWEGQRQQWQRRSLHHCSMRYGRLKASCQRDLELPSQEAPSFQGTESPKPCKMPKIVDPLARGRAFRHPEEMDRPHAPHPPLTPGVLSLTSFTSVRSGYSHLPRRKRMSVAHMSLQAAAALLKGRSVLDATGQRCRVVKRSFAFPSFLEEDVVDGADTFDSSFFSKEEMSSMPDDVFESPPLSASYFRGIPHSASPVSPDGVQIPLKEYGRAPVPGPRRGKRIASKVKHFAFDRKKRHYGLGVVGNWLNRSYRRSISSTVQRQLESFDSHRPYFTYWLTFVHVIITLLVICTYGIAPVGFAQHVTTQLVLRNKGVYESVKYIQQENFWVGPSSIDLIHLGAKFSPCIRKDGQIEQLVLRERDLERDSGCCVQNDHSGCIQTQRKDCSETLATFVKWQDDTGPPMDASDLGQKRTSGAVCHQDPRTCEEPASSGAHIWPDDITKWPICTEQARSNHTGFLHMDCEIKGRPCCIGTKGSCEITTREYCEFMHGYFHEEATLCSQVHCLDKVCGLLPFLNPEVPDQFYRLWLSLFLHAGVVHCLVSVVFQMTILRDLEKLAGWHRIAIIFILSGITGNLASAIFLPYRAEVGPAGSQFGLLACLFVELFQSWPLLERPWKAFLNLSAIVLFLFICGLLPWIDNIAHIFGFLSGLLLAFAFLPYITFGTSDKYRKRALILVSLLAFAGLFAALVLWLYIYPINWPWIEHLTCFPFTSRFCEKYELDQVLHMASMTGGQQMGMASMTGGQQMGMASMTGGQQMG

[3] = target: T3, hiR1-FL-WT-T7 (human iRhom1 full length wild type C-terminally tagged with 3 consecutive copies of the T7 … (human, UniProt Q96CC6 1-855)); assay: FACS on MEF-DKO-hiR1-FL-WT-T7 cells
T3 construct: also called human iRhom1 variant expressed by MEF-DKO-hiR1-FL-WT-T7 cells
T3 sequence: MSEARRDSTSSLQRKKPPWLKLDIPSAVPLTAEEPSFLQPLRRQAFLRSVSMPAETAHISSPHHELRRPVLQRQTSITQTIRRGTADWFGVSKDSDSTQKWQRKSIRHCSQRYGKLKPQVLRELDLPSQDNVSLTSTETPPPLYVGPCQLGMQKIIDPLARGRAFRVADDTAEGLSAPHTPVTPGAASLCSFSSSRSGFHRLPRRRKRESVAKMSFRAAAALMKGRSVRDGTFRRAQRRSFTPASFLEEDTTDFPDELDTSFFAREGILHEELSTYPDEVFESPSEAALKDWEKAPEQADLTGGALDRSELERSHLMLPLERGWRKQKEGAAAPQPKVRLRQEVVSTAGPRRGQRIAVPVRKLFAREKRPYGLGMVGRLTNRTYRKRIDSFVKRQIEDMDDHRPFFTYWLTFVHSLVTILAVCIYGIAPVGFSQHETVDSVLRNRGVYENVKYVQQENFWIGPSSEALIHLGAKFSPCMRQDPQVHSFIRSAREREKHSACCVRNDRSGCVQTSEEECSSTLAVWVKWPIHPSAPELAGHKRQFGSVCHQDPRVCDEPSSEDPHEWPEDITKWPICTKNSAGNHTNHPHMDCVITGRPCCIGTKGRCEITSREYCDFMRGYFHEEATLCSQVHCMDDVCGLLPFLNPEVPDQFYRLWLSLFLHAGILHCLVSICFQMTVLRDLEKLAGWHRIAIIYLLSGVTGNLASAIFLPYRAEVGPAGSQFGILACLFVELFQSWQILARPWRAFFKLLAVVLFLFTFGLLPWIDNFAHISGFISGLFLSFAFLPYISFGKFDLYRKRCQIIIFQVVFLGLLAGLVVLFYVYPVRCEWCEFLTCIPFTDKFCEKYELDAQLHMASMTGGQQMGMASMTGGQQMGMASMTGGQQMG

B1: antibody 5 (antibody, V domains shown)
VH: QVTLKESGPGILQPSQTLSLTCSFSGFSLSTFGMGVGWIRQPSGKGLEWLAHIWWDDEKYYNSALKSRLTISKATSKNQAFLKIANVDTADTATYYCARISNYGSNYWYFNVWGTGTTVTVSS
VL: QVVLTQSPALMSASPGEKVTMTCSAGSSVSCMYWYQQKPGSSPRVLIYDTSNLASGVPARFTGSGSGTSYSLTISRMEAEDAASYYCQQWNSYPLTFGAGTKLELK
notes: Mouse IgG, kappa light chain; also called clone #5; purified antibody 5
[1]
  binding result: no binding (tested: 3 µg/ml)
[2]
  binding result: no binding (tested: 3 µg/ml)

B2: antibody 3 (antibody, V domains shown)
VH: QVTLKESGPGILQPSQTLSLTCSFSGFSLTTFAMGIGWVRQPSGKGLEWLAHIWWDGEKYNNPVLKSRLTISKDTSKNQVFLRIANVDTPDTATYYCARISSIYYIIDNWGQGTSVTVSS
VL: DIVLTQSPATLSVTPGHSVSLSCRASQSISNNLHWYQKKSHESPRLLIKYVSQSISGIPSRFSGSGSGTDFTLSINSVETEDFGMYFCQQSYNWPLTFGAGTKLELK
notes: Mouse IgG, kappa light chain; also called clone #3; purified antibody 3
[3]
  binding result: no binding (tested: 3 µg/ml)
